{
  "source": "patent US20240252614A1",
  "binders": {"B1": {"name": "MPE8 mAb (antibody, V domains shown)", "VH": "EVQLVESGGGLVKPGGSLRLSCAASGFTFSSYSMNWVRQAPGKGLEWVSSISASSSYSDYADSAKGRFTISRDNAKTSLFLQMNSLRAEDTAIYFCARARATGYSSITPYFDIWGQGTLVTVSS", "VL": "QSVVTQTPSVSGAPGQRVTISCTGSSSNIGAGYDVHWYQQLPGTAPKLLIYDNNNRPSGVPDRFSASKSGTSASLAITGLQAEDEADYYCQSYDRNLSGVFGTGTKVTVL"}},
  "conditions_in_all_cases": "remark: other sources report otherwise",
  "key": {"[1]": {"molecular_target": "hMPV078 (hMPV A), Q6WB98", "test": "BLI, 53C stress"}, "[2]": {"molecular_target": "hMPV084 (hMPV A), Q6WB98", "test": "BLI, 53C stress"}, "[3]": {"molecular_target": "hMPV089 (hMPV A), Q6WB98", "test": "BLI, 53C stress"}, "[4]": {"molecular_target": "hMPV088 (hMPV A), Q6WB98", "test": "BLI, 53C stress"}, "[5]": {"molecular_target": "hMPV097 (hMPV A), Q6WB98", "test": "BLI, 53C stress"}, "[6]": {"molecular_target": "hMPV081 (hMPV A), Q6WB98", "test": "BLI, 53C stress"}, "[7]": {"molecular_target": "hMPV086 (hMPV A), Q6WB98", "test": "BLI, 53C stress"}, "[8]": {"molecular_target": "hMPV082 (hMPV A), Q6WB98", "test": "BLI, 53C stress"}, "[9]": {"molecular_target": "hMPV A F WT Control (hMPV A), Q6WB98", "test": "BLI, 53C stress"}, "[10]": {"molecular_target": "hMPV085 (hMPV A), Q6WB98", "test": "BLI, 53C stress"}, "[11]": {"molecular_target": "hMPV090 (hMPV A), Q6WB98", "test": "BLI, 53C stress"}, "[12]": {"molecular_target": "hMPV079 (hMPV A), Q6WB98", "test": "BLI, 53C stress"}, "[13]": {"molecular_target": "hMPV083 (hMPV A), Q6WB98", "test": "BLI, 53C stress"}, "[14]": {"molecular_target": "hMPV087 (hMPV A), Q6WB98", "test": "BLI, 53C stress"}, "[15]": {"molecular_target": "hMPV078 (hMPV A), Q6WB98", "test": "BLI, 58C stress"}, "[16]": {"molecular_target": "hMPV084 (hMPV A), Q6WB98", "test": "BLI, 58C stress"}, "[17]": {"molecular_target": "hMPV089 (hMPV A), Q6WB98", "test": "BLI, 58C stress"}, "[18]": {"molecular_target": "hMPV088 (hMPV A), Q6WB98", "test": "BLI, 58C stress"}, "[19]": {"molecular_target": "hMPV097 (hMPV A), Q6WB98", "test": "BLI, 58C stress"}, "[20]": {"molecular_target": "hMPV081 (hMPV A), Q6WB98", "test": "BLI, 58C stress"}, "[21]": {"molecular_target": "hMPV086 (hMPV A), Q6WB98", "test": "BLI, 58C stress"}, "[22]": {"molecular_target": "hMPV082 (hMPV A), Q6WB98", "test": "BLI, 58C stress"}, "[23]": {"molecular_target": "hMPV A F WT Control (hMPV A), Q6WB98", "test": "BLI, 58C stress"}, "[24]": {"molecular_target": "hMPV085 (hMPV A), Q6WB98", "test": "BLI, 58C stress"}, "[25]": {"molecular_target": "hMPV090 (hMPV A), Q6WB98", "test": "BLI, 58C stress"}, "[26]": {"molecular_target": "hMPV079 (hMPV A), Q6WB98", "test": "BLI, 58C stress"}, "[27]": {"molecular_target": "hMPV083 (hMPV A), Q6WB98", "test": "BLI, 58C stress"}, "[28]": {"molecular_target": "hMPV087 (hMPV A), Q6WB98", "test": "BLI, 58C stress"}, "[29]": {"molecular_target": "hMPV052 (hMPV A), Q6WB98", "test": "BLI, 53C stress"}, "[30]": {"molecular_target": "hMPV059 (hMPV A), Q6WB98", "test": "BLI, 53C stress"}, "[31]": {"molecular_target": "hMPV078 (hMPV A), Q6WB98", "test": "BLI, no stress"}, "[32]": {"molecular_target": "hMPV084 (hMPV A), Q6WB98", "test": "BLI, no stress"}, "[33]": {"molecular_target": "hMPV089 (hMPV A), Q6WB98", "test": "BLI, no stress"}, "[34]": {"molecular_target": "hMPV088 (hMPV A), Q6WB98", "test": "BLI, no stress"}, "[35]": {"molecular_target": "hMPV097 (hMPV A), Q6WB98", "test": "BLI, no stress"}, "[36]": {"molecular_target": "hMPV081 (hMPV A), Q6WB98", "test": "BLI, no stress"}, "[37]": {"molecular_target": "hMPV086 (hMPV A), Q6WB98", "test": "BLI, no stress"}, "[38]": {"molecular_target": "hMPV082 (hMPV A), Q6WB98", "test": "BLI, no stress"}, "[39]": {"molecular_target": "hMPV A F WT Control (hMPV A), Q6WB98", "test": "BLI, no stress"}, "[40]": {"molecular_target": "hMPV085 (hMPV A), Q6WB98", "test": "BLI, no stress"}, "[41]": {"molecular_target": "hMPV090 (hMPV A), Q6WB98", "test": "BLI, no stress"}, "[42]": {"molecular_target": "hMPV079 (hMPV A), Q6WB98", "test": "BLI, no stress"}, "[43]": {"molecular_target": "hMPV083 (hMPV A), Q6WB98", "test": "BLI, no stress"}, "[44]": {"molecular_target": "hMPV087 (hMPV A), Q6WB98", "test": "BLI, no stress"}},
  "data": [
    {"binder": "B1", "values": [
      {"measurement": "Response Shift", "setting": "[1]", "result": 0.939, "unit": "nm"},
      {"measurement": "Response Shift", "setting": "[2]", "result": 0.908, "unit": "nm"},
      {"measurement": "Response Shift", "setting": "[3]", "result": 0.928, "unit": "nm"},
      {"measurement": "Response Shift", "setting": "[4]", "result": 0.937, "unit": "nm"},
      {"measurement": "Response Shift", "setting": "[5]", "result": 0.935, "unit": "nm"},
      {"measurement": "Response Shift", "setting": "[6]", "result": 0.915, "unit": "nm"},
      {"measurement": "Response Shift", "setting": "[7]", "result": 0.86, "unit": "nm"},
      {"measurement": "Response Shift", "setting": "[8]", "result": 0.985, "unit": "nm"},
      {"measurement": "Response Shift", "setting": "[9]", "result": 0.096, "unit": "nm"},
      {"measurement": "Response Shift", "setting": "[10]", "result": 0.889, "unit": "nm"},
      {"measurement": "Response Shift", "setting": "[11]", "result": 0.909, "unit": "nm"},
      {"measurement": "Response Shift", "setting": "[12]", "result": 0.861, "unit": "nm"},
      {"measurement": "Response Shift", "setting": "[13]", "result": 0.796, "unit": "nm"},
      {"measurement": "Response Shift", "setting": "[14]", "result": 0.903, "unit": "nm"},
      {"measurement": "Response Shift", "setting": "[15]", "result": 0.939, "unit": "nm"},
      {"measurement": "Response Shift", "setting": "[16]", "result": 0.665, "unit": "nm"},
      {"measurement": "Response Shift", "setting": "[17]", "result": 0.917, "unit": "nm"},
      {"measurement": "Response Shift", "setting": "[18]", "result": 0.812, "unit": "nm"},
      {"measurement": "Response Shift", "setting": "[19]", "result": 0.918, "unit": "nm"},
      {"measurement": "Response Shift", "setting": "[20]", "result": 0.945, "unit": "nm"},
      {"measurement": "Response Shift", "setting": "[21]", "result": 0.736, "unit": "nm"},
      {"measurement": "Response Shift", "setting": "[22]", "result": 0.928, "unit": "nm"},
      {"measurement": "Response Shift", "setting": "[23]", "result": 0.006, "unit": "nm"},
      {"measurement": "Response Shift", "setting": "[24]", "result": 0.757, "unit": "nm"},
      {"measurement": "Response Shift", "setting": "[25]", "result": 0.906, "unit": "nm"},
      {"measurement": "Response Shift", "setting": "[26]", "result": 0.867, "unit": "nm"},
      {"measurement": "Response Shift", "setting": "[27]", "result": 0.768, "unit": "nm"},
      {"measurement": "Response Shift", "setting": "[28]", "result": 0.805, "unit": "nm"},
      {"measurement": "Response Shift", "setting": "[29]", "result": -0.045, "unit": "nm"},
      {"measurement": "Response Shift", "setting": "[30]", "result": -0.039, "unit": "nm"},
      {"measurement": "Response Shift", "setting": "[31]", "result": 0.955, "unit": "nm"},
      {"measurement": "Response Shift", "setting": "[32]", "result": 0.924, "unit": "nm"},
      {"measurement": "Response Shift", "setting": "[33]", "result": 0.959, "unit": "nm"},
      {"measurement": "Response Shift", "setting": "[34]", "result": 0.974, "unit": "nm"},
      {"measurement": "Response Shift", "setting": "[35]", "result": 0.918, "unit": "nm"},
      {"measurement": "Response Shift", "setting": "[36]", "result": 0.955, "unit": "nm"},
      {"measurement": "Response Shift", "setting": "[37]", "result": 0.834, "unit": "nm"},
      {"measurement": "Response Shift", "setting": "[38]", "result": 0.949, "unit": "nm"},
      {"measurement": "Response Shift", "setting": "[39]", "result": 0.926, "unit": "nm"},
      {"measurement": "Response Shift", "setting": "[40]", "result": 0.877, "unit": "nm"},
      {"measurement": "Response Shift", "setting": "[41]", "result": 0.903, "unit": "nm"},
      {"measurement": "Response Shift", "setting": "[42]", "result": 0.887, "unit": "nm"},
      {"measurement": "Response Shift", "setting": "[43]", "result": 0.805, "unit": "nm"},
      {"measurement": "Response Shift", "setting": "[44]", "result": 0.979, "unit": "nm"}
    ]}
  ]
}
